Laboratory results: article PMC9669585

Molecular target: mCherry-PEX5(TPR) (human) (UniProt P50542)
Test: FRET or BRET; flowFRET competition in living pex5-/- MEF; mCherry-PEX5(TPR) as acceptor, EGFP-PTS1(SCP2) as donor, Cerulean-tagged protein as competitor; apparent KD1^app and KD2^app by fitting, plotted as Log10(KD2^app)/Log10(KD1^app)

Cerulean-PTS1(SCP2) (peptide)
Log10(KD2^app)/Log10(KD1^app) against the donor EGFP-PTS1(SCP2): 1
